According to paper PMC8347620, “Arabidopsis G-Protein β Subunit AGB1 Negatively Regulates DNA Binding of MYB62, a Suppressor in the Gibberellin Pathway”:

Target: T1, MBP-MYB62 (Arabidopsis thaliana, UniProt Q9C9G7 1-286)
T1 sequence: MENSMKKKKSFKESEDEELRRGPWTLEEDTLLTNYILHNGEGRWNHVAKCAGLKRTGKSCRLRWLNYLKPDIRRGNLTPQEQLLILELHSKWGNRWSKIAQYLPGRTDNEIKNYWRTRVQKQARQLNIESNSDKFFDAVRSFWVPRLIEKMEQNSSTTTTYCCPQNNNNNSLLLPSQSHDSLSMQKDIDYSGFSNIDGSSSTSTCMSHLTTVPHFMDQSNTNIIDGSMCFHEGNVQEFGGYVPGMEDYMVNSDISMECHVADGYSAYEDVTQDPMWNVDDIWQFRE
Test: EMSA; EMSA: 2.5% glycerol, 50 mM KCl, 5 mM MgCl2, 10 mM EDTA, 30 min, room temperature; pH not stated
Conditions: protein: recombinant; tags: MBP (pMAL-c2x); label: biotin on both strands (BIO printed before each oligo); blunt

B1: ProGA2ox7 probe (MYB element) (dsDNA)
DNA 1: AAGCCCTTGGTTGGGGATGG
DNA 2: CCATCCCCAACCAAGGGCTT
  binding result: binds
